Experimental data taken from paper PMC11446282.

B1: ZDS1 S864: ZDS1, S864 to alanine (protein, UniProt P50111 1-915, looked up, variant S864A)
Protein ZDS1: MSNRDNESMLRTTSSDKAIASQRDKRKSEVLIAAQSLDNEIRSVKNLKRLSIGSMDLLIDPELDIKFGGESSGRRSWSGTTSSSASMPSDTTTVNNTRYSDPTPLENLHGRGNSGIESSNKTKQGNYLGIKKGVHSPSRKLNANVLKKNLLWVPANQHPNVKPDNFLELVQDTLQNIQLSDNGEDNDGNSNENNDIEDNGEDKESQSYENKENNTINLNRGLSRHGNASLIRRPSTLRRSYTEFDDNEDDDNKGDSASETVNKVEERISKIKERPVSLRDITEELTKISNSAGLTDNDAITLARTLSMAGSYSDKKDQPQPEGHYDEGDIGFSTSQANTLDDGEFASNMPINNTMTWPERSSLRRSRFNTYRIRSQEQEKEVEQSVDEMKNDDEERLKLTKNTIKVEIDPHKSPFRQQDEDSENMSSPGSIGDFQDIYNHYRQSSGEWEQEMGIEKEAEEVPVKVRNDTVEQDLELREGTTDMVKPSATDDNKETKRHRRRNGWTWLNNKMSREDDNEENQGDDENEENVDSQRMELDNSKKHYISLFNGGEKTEVSNKEEMNNSSTSTATSQTRQKIEKTFANLFRRKPHHKHDASSSPSSSPSSSPSIPNNDAVHVRVRKSKKLGNKSGREPVEPIVLRNRPRPHRHHHSRHGSQKISVKTLKDSQPQQQIPLQPQLEGAIEIEKKEESDSESLPQLQPAVSVSSTKSNSRDREEEEAKKKNKKRSNTTEISNQQHSKHVQKENTDEQKAQLQAPAQEQVQTSVPVQASAPVQNSAPVQTSAPVEASAQTQAPAAPPLKHTSILPPRKLTFADVKKPDKPNSPVQFTDSAFGFPLPLLTVSTVIMFDHRLPINVERAIYRLAHLKLSNSKRGLREQVLLSNFMYAYLNLVNHTLYMEQVAHDKEQQQQQQQQP
B2: ZDS1 H865: ZDS1, H865 to alanine (protein, UniProt P50111 1-915, looked up, variant H865A)
Protein ZDS1: MSNRDNESMLRTTSSDKAIASQRDKRKSEVLIAAQSLDNEIRSVKNLKRLSIGSMDLLIDPELDIKFGGESSGRRSWSGTTSSSASMPSDTTTVNNTRYSDPTPLENLHGRGNSGIESSNKTKQGNYLGIKKGVHSPSRKLNANVLKKNLLWVPANQHPNVKPDNFLELVQDTLQNIQLSDNGEDNDGNSNENNDIEDNGEDKESQSYENKENNTINLNRGLSRHGNASLIRRPSTLRRSYTEFDDNEDDDNKGDSASETVNKVEERISKIKERPVSLRDITEELTKISNSAGLTDNDAITLARTLSMAGSYSDKKDQPQPEGHYDEGDIGFSTSQANTLDDGEFASNMPINNTMTWPERSSLRRSRFNTYRIRSQEQEKEVEQSVDEMKNDDEERLKLTKNTIKVEIDPHKSPFRQQDEDSENMSSPGSIGDFQDIYNHYRQSSGEWEQEMGIEKEAEEVPVKVRNDTVEQDLELREGTTDMVKPSATDDNKETKRHRRRNGWTWLNNKMSREDDNEENQGDDENEENVDSQRMELDNSKKHYISLFNGGEKTEVSNKEEMNNSSTSTATSQTRQKIEKTFANLFRRKPHHKHDASSSPSSSPSSSPSIPNNDAVHVRVRKSKKLGNKSGREPVEPIVLRNRPRPHRHHHSRHGSQKISVKTLKDSQPQQQIPLQPQLEGAIEIEKKEESDSESLPQLQPAVSVSSTKSNSRDREEEEAKKKNKKRSNTTEISNQQHSKHVQKENTDEQKAQLQAPAQEQVQTSVPVQASAPVQNSAPVQTSAPVEASAQTQAPAAPPLKHTSILPPRKLTFADVKKPDKPNSPVQFTDSAFGFPLPLLTVSTVIMFDHRLPINVERAIYRLSALKLSNSKRGLREQVLLSNFMYAYLNLVNHTLYMEQVAHDKEQQQQQQQQP
B3: ZDS1 K867: ZDS1, K867 to alanine (protein, UniProt P50111 1-915, looked up, variant K867A)
Protein ZDS1: MSNRDNESMLRTTSSDKAIASQRDKRKSEVLIAAQSLDNEIRSVKNLKRLSIGSMDLLIDPELDIKFGGESSGRRSWSGTTSSSASMPSDTTTVNNTRYSDPTPLENLHGRGNSGIESSNKTKQGNYLGIKKGVHSPSRKLNANVLKKNLLWVPANQHPNVKPDNFLELVQDTLQNIQLSDNGEDNDGNSNENNDIEDNGEDKESQSYENKENNTINLNRGLSRHGNASLIRRPSTLRRSYTEFDDNEDDDNKGDSASETVNKVEERISKIKERPVSLRDITEELTKISNSAGLTDNDAITLARTLSMAGSYSDKKDQPQPEGHYDEGDIGFSTSQANTLDDGEFASNMPINNTMTWPERSSLRRSRFNTYRIRSQEQEKEVEQSVDEMKNDDEERLKLTKNTIKVEIDPHKSPFRQQDEDSENMSSPGSIGDFQDIYNHYRQSSGEWEQEMGIEKEAEEVPVKVRNDTVEQDLELREGTTDMVKPSATDDNKETKRHRRRNGWTWLNNKMSREDDNEENQGDDENEENVDSQRMELDNSKKHYISLFNGGEKTEVSNKEEMNNSSTSTATSQTRQKIEKTFANLFRRKPHHKHDASSSPSSSPSSSPSIPNNDAVHVRVRKSKKLGNKSGREPVEPIVLRNRPRPHRHHHSRHGSQKISVKTLKDSQPQQQIPLQPQLEGAIEIEKKEESDSESLPQLQPAVSVSSTKSNSRDREEEEAKKKNKKRSNTTEISNQQHSKHVQKENTDEQKAQLQAPAQEQVQTSVPVQASAPVQNSAPVQTSAPVEASAQTQAPAAPPLKHTSILPPRKLTFADVKKPDKPNSPVQFTDSAFGFPLPLLTVSTVIMFDHRLPINVERAIYRLSHLALSNSKRGLREQVLLSNFMYAYLNLVNHTLYMEQVAHDKEQQQQQQQQP
B4: ZDS1 L866: ZDS1, L866 to alanine (protein, UniProt P50111 1-915, looked up, variant L866A)
Protein ZDS1: MSNRDNESMLRTTSSDKAIASQRDKRKSEVLIAAQSLDNEIRSVKNLKRLSIGSMDLLIDPELDIKFGGESSGRRSWSGTTSSSASMPSDTTTVNNTRYSDPTPLENLHGRGNSGIESSNKTKQGNYLGIKKGVHSPSRKLNANVLKKNLLWVPANQHPNVKPDNFLELVQDTLQNIQLSDNGEDNDGNSNENNDIEDNGEDKESQSYENKENNTINLNRGLSRHGNASLIRRPSTLRRSYTEFDDNEDDDNKGDSASETVNKVEERISKIKERPVSLRDITEELTKISNSAGLTDNDAITLARTLSMAGSYSDKKDQPQPEGHYDEGDIGFSTSQANTLDDGEFASNMPINNTMTWPERSSLRRSRFNTYRIRSQEQEKEVEQSVDEMKNDDEERLKLTKNTIKVEIDPHKSPFRQQDEDSENMSSPGSIGDFQDIYNHYRQSSGEWEQEMGIEKEAEEVPVKVRNDTVEQDLELREGTTDMVKPSATDDNKETKRHRRRNGWTWLNNKMSREDDNEENQGDDENEENVDSQRMELDNSKKHYISLFNGGEKTEVSNKEEMNNSSTSTATSQTRQKIEKTFANLFRRKPHHKHDASSSPSSSPSSSPSIPNNDAVHVRVRKSKKLGNKSGREPVEPIVLRNRPRPHRHHHSRHGSQKISVKTLKDSQPQQQIPLQPQLEGAIEIEKKEESDSESLPQLQPAVSVSSTKSNSRDREEEEAKKKNKKRSNTTEISNQQHSKHVQKENTDEQKAQLQAPAQEQVQTSVPVQASAPVQNSAPVQTSAPVEASAQTQAPAAPPLKHTSILPPRKLTFADVKKPDKPNSPVQFTDSAFGFPLPLLTVSTVIMFDHRLPINVERAIYRLSHAKLSNSKRGLREQVLLSNFMYAYLNLVNHTLYMEQVAHDKEQQQQQQQQP

Each molecule was assayed on PP2A-B55α (assay: Single alanine mutational scan, YFP-tagged interactors immunoprecipitated from HeLa cells, Western blot). Settings: single alanine mutant of YFP-tagged ZDS1.
Format: binding, human

Compared with B1, B2 is lower in Experimental % binding: 113% for the first, 75% for the second.

Compared with B3, B4 is higher in Experimental % binding: 15% for the first, 52% for the second.
